Reference: patent US8497072 (AbbVie / Abbott, dated 2013)

B1: monoclonal antibody 8F5 (antibody, V domains shown)
VH: EVQLVESGGGLVQPGGSLKLSCAASGFTFSSYGMSWVRQTPDKRLELVASINSNGGSTYYPDSVKGRFTISRDNAKNTLYLQMSSLKSEDTAMYYCASGDYWGQGSTLTVSS
VL: DVVMTQTPLSLPVSLGDQASISCRSSQSLVYSNGDTYLHWYLQKPGQSPKLLIYKVSNRFSGVPDRFSGSGSGTDFTLKISRVEAEDLGVYFCSQSTHVPWTFGGGTKLEIKR
notes: Murine monoclonal antibody from a hybridoma (Balb/c mice immunized with Aβ(1-42) globulomer); Biotinylated with Sulfo-NHS-Biotin for the sandwich ELISA; coupled to Sepharose or Dynabeads for the immunoprecipitations; also called mMAb 8F5; anti-Aβ mouse Mab 8F5
B2: monoclonal antibody 8C5 (antibody, V domains shown)
VH: EVQLVESGGGLVQPGGSLKLSCTASGFTFSSYGMSWVRQTPDKRLELVASIKNNGGSTYYPDSLKGRFTISRDNAKNTLYLQMSSLKSEDTAMYYCASGDYWGQGTTLTVSS
VL: DVVMTQTPLSLPVSLGDQASISCRSSQSLVHSNGDTFLHWYLQKPGQSPKLLIYKVSNRFSGVPDRFSGSGSGTDFTLKISRVEAEDLGIYFCSQSIHVPWTFGGGTKLEIKR
notes: Murine monoclonal antibody from a hybridoma; Biotinylated for the sandwich ELISA; also called mMab 8C5; 5C5

Key:
[1] = molecular target: T1, endogenous Aβ(1-42) in human CSF (human); experiment: IP from AD patient CSF, urea-PAGE Western blot, share of Aβ42 in recovered Aβ40+42
T1 construct: Endogenous peptide in cerebrospinal fluid of MCI and AD patients; it was quantified after elution by ELISA or urea-PAGE Western blot; also called Aβ42; Amyloid β(1-42)
Description: Immunoprecipitation of Abeta Species from Human AD-CSF: 250 μL aliquot of the prepared CSF sample were added to 25 μL anti-Aβ-Dynabeads suspension. Immunoprecipitation occurred under stirring at 6° C. for 16 hours. Subsequent washing of the beads was performed 3 times 5 min. with 1 mL PBS/0.1% (w/v) BSA and finally once 3 min. with 1 mL 10 mM Tris/HCL pH 7.5 buffer. During the washing procedure, the supernatant was carefully removed while the dynabeads were immobilized at the side of the reaction vial with a magnetic separator stand (MSS). The residual supernatant was thoroughly removed after the final washing step. […] After cooling to room temperature, the dynabeads were immobilized at the side of the reaction vial with a magnetic separator stand (MSS), and the supernatant was transferred to another Eppendorff tube (IP eluate).
15 μL IP eluate aliquots of the immunoprecipitated samples were loaded onto the 8 M Urea PAGE. Electrophoresis was performed at 100 V (15 min) and continued at 60 V. The electrophoresis was stopped when the running front of the blue sample loading dye was still 0.5 cm away from the end of the gel.

[2] = molecular target: T2, Aβ(1-42) monomer, HFIP pretreated (human); experiment: sandwich ELISA, 6G1 capture, antigen titrated, biotinylated 8F5 detection
T2 construct: also called Aβ(1-42) monomer in HFIP; Aβ(1-42) monomer HFIP treated
Description: (§1) Two types of experiments were performed. […] This experiment is described in Example 2.1 below.
(§2) Add 10 μl Aβ(1-42) monomer HFIP-pretreated standard stock solution to 44041 PBST+0.5% BSA 10 μg/ml Add 50 μl 10 μg/ml Aβ(1-42) monomer HFIP pretreated standard solution to 495041 PBST+0.5% BSA=100 ng/ml c) Aβ(1-42) monomer in NH4OH Add 5 μl Aβ(1-42) monomer in NH4OH standard stock solution to 995 μl PBST+0.5% BSA=[…] Add 50 μl 10 μg/ml Aβ(1-42) monomer in NH4OH standard solution to 495041 PEST+[…]=100 ng/ml d) Aβ(1-40) monomer HFIP-pretreated Add 1 μl Aβ(1-40) monomer HFIP pretreated standard stock solution to 49 μl PBST+0.5% BSA=430 μg/ml Add 10 μl 430 μg/ml Aβ(1-40) monomer HFIP pretreated standard solution to […] PEST+0.5% BSA=10 μg/ml Add 50 μl 10 μg/ml Aβ(1-40) monomer HFIP pretreated standard solution to 4950 μl PBST+0.5% BSA 100 ng/ml Standard Curves:
(§3) 1. Apply 100 μl anti-Aβ mMAb 6G1 solution per well and incubate overnight at 4° C. 2. Discard the antibody solution and wash the wells with 250 μl PBST-Buffer three times. 3. Add 260 μl block solution per well and incubate 2 h at room temperature. 4. Discard the block solution and wash the wells with 250 μl PBST-Buffer three times. 5. After preparation of standards, apply 100 μl per well of standards to the plate. Incubate 2 h at room temperature and overnight at 4° C. 6. Discard the standard solution and wash the wells with 250 μl PBST-Buffer three times. 7. […] 8. Discard the antibody solution and wash the wells with 250 μl PBST-Buffer three times. 9. Add 200 μl label solution per well and incubate 1 h at room temperature. 10. Discard the label solution and wash the wells with 250 μl PBST-Buffer three times. 11. Add 100 μl of TMB solution to each well and incubate at room temperature (5-15 min). 12.

[3] = molecular target: Aβ(1-42) monomer in NH4OH (human); experiment: as above
Description: as §1, §2, §3

[4] = molecular target: T3, Aβ(1-42) globulomer (human, UniProt P05067 672-713); experiment: as above
T3 construct: The definitions give n=12-14 subunits for late assembly forms; no subunit number is stated for the preparation used; also called A-beta (1-42) globulomer; Aβ(1-42) globular oligomer
Description: as §1, §2, §3

[5] = molecular target: T4, Aβ(1-40) monomer (human); experiment: as above
T4 construct: also called Aβ40; Aβ(1-40) monomer HFIP pretreated
Description: as §1, §2, §3

[6] = molecular target: T3, Aβ(1-42) globulomer; experiment: sandwich ELISA, reference Aβ(1-42) monomer
[7] = molecular target: T3, Aβ(1-42) globulomer; experiment: dot blot, reference Aβ(1-42) monomer
Description: (§4) In a second example, described in Example 2.2 below, the oligomer selectivity versus Aβ(1-42) monomer and Aβ(1-40) monomer was examined by dot blot immunoassay.
(§5) Serial dilutions of Aβ(1-42) globulomer, Aβ1-42 monomer and Aβ1-40 monomer were made in the range from 100 pmol/μl-0.01 pmol/μl in PBS. Of each sample, 1 μl was dotted onto a nitrocellulose membrane. […] The detection signal was analyzed in its intensity (reflective density=RD) via a densitometer (GS 800, Biorad, Hercules, Calif., USA) at an antigen concentration of 10 pmol.

[8] = molecular target: T5, Aβ1-42 monomer (dot blot) (human); experiment: dot blot, 10 pmol antigen on nitrocellulose, 0.2 µg/ml antibody, densitometry
T5 construct: also called Aβ42 monomer
Description: as §4, §5

[9] = molecular target: T3, Aβ(1-42) globulomer; experiment: as above
Description: as §4, §5

[10] = molecular target: T4, Aβ(1-40) monomer; experiment: as above
Description: as §4, §5

[11] = molecular target: T3, Aβ(1-42) globulomer; experiment: dot blot, reference Aβ(1-40) monomer
Description: as §4, §5

[12] = molecular target: T2, Aβ(1-42) monomer, HFIP pretreated; experiment: sandwich ELISA, EC50 of this antigen divided by EC50 of Aβ(1-42) globulomer
[13] = molecular target: Aβ(1-42) monomer in NH4OH (human); experiment: as above
[14] = molecular target: T4, Aβ(1-40) monomer; experiment: as above
[15] = molecular target: T5, Aβ1-42 monomer (dot blot); experiment: dot blot, 10 pmol antigen on nitrocellulose, densitometry
Description: as §4, §5

[16] = molecular target: T3, Aβ(1-42) globulomer; experiment: as above
Description: as §4, §5

[17] = molecular target: T4, Aβ(1-40) monomer; experiment: as above
Description: as §4, §5

T2 sequence (peptide, as listed by the source): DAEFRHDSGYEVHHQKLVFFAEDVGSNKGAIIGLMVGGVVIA
T4 sequence (peptide, as listed by the source): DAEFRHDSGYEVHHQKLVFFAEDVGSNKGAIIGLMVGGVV

| Binder | Ratio Aβ42/Aβ40+42 × 100% [1] [%] | Log EC50 [2] | Log EC50 [3] | Log EC50 [4] | Log EC50 [5] | selectivity for Aβ(1-42) globulomer versus Aβ(1-42) monomer [6] [fold] | Ratio RD Aβ(1-42) globulomer/RD Aβ(1-42) monomer [7] | Reflective Density (RD) [10 pmol] [8] [RD] | Reflective Density (RD) [10 pmol] [9] [RD] | Reflective Density (RD) [10 pmol] [10] [RD] | Ratio RD Aβ(1-42) globulomer/RD Aβ(1-40) monomer [11] | selectivity factor (EC50 ratio against Aβ(1-42) globulomer) [12] [fold] | selectivity factor (EC50 ratio against Aβ(1-42) globulomer) [13] [fold] | selectivity factor (EC50 ratio against Aβ(1-42) globulomer) [14] [fold] | Reflective Density (RD) [10 pmol] [15] [RD] | Reflective Density (RD) [10 pmol] [16] [RD] | Reflective Density (RD) [10 pmol] [17] [RD] |
| --- | --- | --- | --- | --- | --- | --- | --- | --- | --- | --- | --- | --- | --- | --- | --- | --- | --- |
| B1 | 8.1 | 2.75 | 3 | 1.96 | 2.83 | ~10 | 1.4 | 1.1 | 1.6 | 0.1 | 16.9 | 6.1 | 11.1 | 7.4 |  |  |  |
| B2 | 14.9 |  |  |  |  |  | 5.1 |  |  |  | 4.1 | 4.1 | > 100 | > 100 | 0.2 | 1.3 | 0.3 |
